# In article PMC6356648:
# Target: laminin-332 produced and deposited by iNFs and iCAFs (human (endogenous in iNFs and iCAFs)) (UniProt Q16787)
substance,measurement,value
integrin α3β1 (from UniProt P26006 33-1051; P05556 21-798) (receptor),"contraction of a collagen-I gel by iCAFs, untreated (reference)",73%
same,"contraction of a collagen-I gel by iCAFs, with BM2 (20 µg/mL)",44%
same,"contraction of a collagen-I gel by iCAFs, with lebein-1 (10 µg/mL)",34%
